Numbering of substitutions follows the chain as printed.
Key:
[1] = system: P. falciparum merozoite surface protein 1 (MSP-1) subunits p83, p38, p42; assay: ELISA of biotinylated VHHs on plate-bound MSP-1 subunits; type: binding, Plasmodium falciparum; settings: streptavidin-HRP and TMB
Protocol: (§1) FIGS. 13A-13D: VHH nanobodies bind specifically to Plasmodium falciparum: merozoite surface protein 1 (MSP-1). FIG. 13A: Schematic of the PfMSP-1 pro-peptide and the four inclusive subunits: p83, p30, p38, and p42. FIG. 13B: Purified […] B4, anti-p38 B8, anti-p42 A6, and anti-p42 G11 VHHs were biotinylated and these VHHs were incubated with plate bound subunits proteins as indicated. Binding ELISA was detected by using streptavidin-HRP and tetramethylbenzidine (TMB). Data are represented as optical density (OD). Error bars show SEM. FIG. 13C: Western blot of VHHs against the three PfMSP-1 subunits, the full length p190 pro-peptide, and some 3D7 lysates from −38-44 hour 3D7 schizonts. FIG. 13D: Flow cytometry on synchronized ˜38-44 hour 3D7 schizonts using fluorescently (Cy5) labeled VHHs.
(§2) Purified VHH nanobodies were biotinylated and tested for specificity toward isolated MSP-1 subunits. Anti-p83 B4, anti-p38 B8, anti-p42 A6, and anti-p42 G11 VHHs were each incubated with plate-bound p83, p38, p42, and p42, and binding to the plates was detected by an enzyme-linked immunoassay (ELISA) using streptavidin-horseradish peroxidase (HRP) and tetramethylbenzidine (TMB). […] Finally, purified VHHs were tested against live ˜38-44 hour 3D7 schizonts in a flow cytometry assay.

[2] = system: PfMSP-1 subunits, full length p190 pro-peptide; type: binding, Plasmodium falciparum
Protocol: as §1, with “FIG.” for “FIGS. 13A-13D: VHH nanobodies bind specifically to Plasmodium falciparum: merozoite surface protein 1 (MSP-1). FIG.”
as §2

[3] = system: purified MICA*009 antigen in whole cell lysate; assay: Immunoblot with biotinylated anti-MICA nanobodies; type: binding, human; settings: 1 μg/mL, streptavidin-HRP
[4] = target: MICA*008 (Homo sapiens, UniProt Q29983, C59Y/G229S/K148E/K196E/M152V/Q274R/S238T/T236I/T47A/W233R); type: binding
[5] = system: MICA*009; type: binding, human
[6] = target: MICA*002 (Homo sapiens, UniProt Q29983, K148E/T47A/W37G); type: binding
[7] = target: T1, MICA-transfected B16F10 cells (Homo sapiens, UniProt Q29983); assay: Flow cytometry of transfected B16F10 melanoma cells; type: binding; settings: biotinylated, streptavidin-PE
T1 construct: expressed in transfected cells; host or cells: B16F10 mouse melanoma cells
T1 sequence (Q29983 24-383): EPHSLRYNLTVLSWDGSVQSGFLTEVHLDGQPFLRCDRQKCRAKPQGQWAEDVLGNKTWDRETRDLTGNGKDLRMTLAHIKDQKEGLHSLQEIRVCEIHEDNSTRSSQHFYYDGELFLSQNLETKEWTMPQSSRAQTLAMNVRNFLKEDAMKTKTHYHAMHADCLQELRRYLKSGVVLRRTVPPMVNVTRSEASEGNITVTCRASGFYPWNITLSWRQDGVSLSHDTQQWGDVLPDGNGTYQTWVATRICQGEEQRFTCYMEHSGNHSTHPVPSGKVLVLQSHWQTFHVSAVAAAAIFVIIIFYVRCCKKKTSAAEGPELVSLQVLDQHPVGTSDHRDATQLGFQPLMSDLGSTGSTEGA
Excerpt: (§3) FIGS. 17A-17E: Development of MHC class I polypeptide-related sequence A (MICA)-specific nanobodies. FIG. 17A: Comparison of amino acid sequences of 9 MICA-specific nanobodies that were identified and cloned into a pHen6 expression vector. FIG. 17B: Immunoblots showing specific binding of biotinylated A1 and H3 anti-MICA nanobody clones for purified MICA*009 antigen in whole cell lysate. FIG. 17C: Quantification of ELISA cross-competition assays to determine binding epitopes for anti-MICA nanobodies. A decrease in intensity measured at 450 nm as compared to a single nanobody alone is indicative of binding to the same epitope. Cross-competition is shown for A1 (left) and H3 (right) anti-MICA nanobody clones. FIG. 17D: Quantification of anti-MICA nanobody binding to MICA allelic products as determined by ELISA. A significant increase in intensity measured at 450 nm as compared to uncoated ELISA control is indicative of binding. FIG. 17E: Flow cytometry of B16F10 cells transfected with empty vector, MICA, or MHC class I polypeptide-related sequence B (MICB) using A1 and H3 anti-MICA nanobody clones.
(§4) To further assess whether the isolated anti-MICA VHH nanobodies would bind to MICA on the surface of cells, A1 and H3 nanobody clones were generated against soluble, recombinant MICA*009 and cell binding was assessed by flow cytometry. Binding was assessed using B16F10 melanoma cells transfected to express either MICA or MICB, or an empty vector (EV) as a negative control. Biotinylated A1 and H3 nanobodies were labeled with streptavidin-phycoerythrin (PE) and used for cytofluorimetry of transfected B16F10 cells.

[8] = target: T2, MICB-transfected B16F10 cells (Homo sapiens, UniProt Q29980); assay: as above; type: binding; settings: biotinylated, streptavidin-PE
T2 construct: expressed in transfected cells; host or cells: B16F10 mouse melanoma cells
T2 sequence (Q29980 23-383): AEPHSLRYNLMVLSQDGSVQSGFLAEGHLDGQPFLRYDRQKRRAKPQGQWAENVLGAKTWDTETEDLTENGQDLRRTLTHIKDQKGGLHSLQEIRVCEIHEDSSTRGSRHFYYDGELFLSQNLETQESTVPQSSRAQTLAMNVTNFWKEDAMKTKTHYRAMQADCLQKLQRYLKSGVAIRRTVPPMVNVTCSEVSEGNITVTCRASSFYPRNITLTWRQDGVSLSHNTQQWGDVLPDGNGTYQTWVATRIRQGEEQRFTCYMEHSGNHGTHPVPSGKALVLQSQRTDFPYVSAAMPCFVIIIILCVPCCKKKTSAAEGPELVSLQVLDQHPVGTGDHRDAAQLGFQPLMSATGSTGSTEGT
Excerpt: as §3, §4

[9] = system: empty vector (EV)-transfected B16F10 cells; type: binding; settings: biotinylated, streptavidin-PE
[10] = target: influenza A hemagglutinin

MICA*008, sequence (Q29983 24-307 T47A/C59Y/K148E/M152V/K196E/G229S/W233R/T236I/S238T/Q274R): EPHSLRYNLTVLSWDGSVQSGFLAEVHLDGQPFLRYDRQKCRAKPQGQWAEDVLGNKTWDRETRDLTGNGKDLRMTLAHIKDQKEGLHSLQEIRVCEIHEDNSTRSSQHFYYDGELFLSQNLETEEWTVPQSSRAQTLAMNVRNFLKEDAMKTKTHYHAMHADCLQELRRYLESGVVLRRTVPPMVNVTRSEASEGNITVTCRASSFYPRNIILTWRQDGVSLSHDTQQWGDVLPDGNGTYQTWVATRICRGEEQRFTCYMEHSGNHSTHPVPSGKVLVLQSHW
MICA*002, sequence (Q29983 24-307 W37G/T47A/K148E): as the sequence (Q29983 24-307 T47A/C59Y/K148E/M152V/K196E/G229S/W233R/T236I/S238T/Q274R) above, with W14G, Y36C, V129M, E173K, S206G, R210W, I213T, T215S, R251Q counted along it

B1: anti-p42 G11: VHH specific for P. falciparum MSP-1 p42, SEQ ID NO: 16 (protein)
VHH: QVQLVETGGGLVQAGGSLRLSCVVSGRSLILYGMGWFRQAPGKEREFVAGIVWNGGWTYYADSVKGRFTISRDTAKNTVYLQMNSLKPEDTAVYSCAAGPGDGRRRVAPAEYNYWGQGTQVTVSSLPETGGHHHHHH
[1]
  binding to plate-bound MSP-1 subunits (ELISA): bind specifically to one subunit
[2]
  binding to MSP-1 subunits and pro-peptide p190 (gel electrophoresis / Western blot): bind to one subunit of MSP-1 and to the MSP-1 pro-peptide (p190), but not to any other subunit

B2: A1: VHH specific for MICA, SEQ ID NO: 19 (protein)
VHH: MAQVQLVESGGGLVQPGGSLRLSCAASGFTLDYYDIGWFRQAPGKEREGVSCITSSDGSTYYADSVKGRFTISRDNAKNTVYLQMNSLKPEDTAVYYCAADCTKPQWKSKTEAWGQGTQVTVSSGGLPETGGHHHHHH
[3]
  luminescent signal on immunoblots: strong and specific luminescent signal
[4]
  binding to MICA variant (ELISA): observed to bind
[5]
  binding to MICA variant (ELISA): observed to bind
[6]
  binding to MICA variant (ELISA): not observed to bind
[7]
  staining of transfected cells: robust staining
[8]
  staining of transfected cells: neither nanobody clone stained
[9]
  staining of transfected cells: neither nanobody clone stained

B3: B11: VHH specific for MICA, SEQ ID NO: 20 (protein)
VHH: MAQVQLVETGGGLVQPGGSLRLSCAASGFTLDYYAIGWFRQAPGKEREGVSCITSDGNTYYADSVKGRFTISRDNAKNTVYLQMNSLKPEDTAVYYCAADCLSSTWRTNAYLGQGTQVTVSSGGLPETGGHHHHHH
[4]
  binding to MICA variant (ELISA): observed to bind
[5]
  binding to MICA variant (ELISA): observed to bind
[6]
  binding to MICA variant (ELISA): not observed to bind

B4: E9: VHH specific for MICA, SEQ ID NO: 23 (protein)
VHH: B3 VHH with D32E, Y33H, R47Q, N58D, T105N, N109S, L112W, G113A
[4]
  binding to MICA variant (ELISA): observed to bind
[5]
  binding to MICA variant (ELISA): observed to bind
[6]
  binding to MICA variant (ELISA): not observed to bind

B5: VHHkappa-SD36 conjugated through click chemistry: SD36-azide conjugated to VHHkappa-DBCO through copper-free click reaction (protein)
VHH 1: QVQLVESGGGWVQPGGSLRLSCAASGFTFSDTAMMWVRQAPGKGREWVAAIDTGGGYTYYADSVKGRFTISRDNAKNTLYLQMNSLKPEDTARYYCAKTYSGNYYSNYTVANYGTTGRGTLVTVSSGG
VHH 2: EVQLVESGGGLVQAGGSLKLSCAASGRTYAMGWFRQAPGKEREFVAHINALGTRTYYSDSVKGRFTISRDNAKNTEYLEMNNLKPEDTAVYYCTAQGQWRAAPVAVAAEYEFWGQGTQVTVSSGG
[10]
  affinity for influenza A hemagglutinin, in words: low nanomolar
  affinity relative to genetically conjugated VHHkappa-SD36: higher affinity

B6: anti-p42 A6: VHH specific for P. falciparum MSP-1 p42, SEQ ID NO: 7 (protein)
VHH: QVQLVESGGGLVQAGGSLRLSCAASARTFSYYGAAWFRQAPGKEREFVAAVSWNGDDTYYADSVKGRFTISRDNTKNTVSLQMNALKPEDTAVYYCEAAAYGRDWRQSANYVYWGQGTQVTVSSLPETGGHHHHHH
[1]
  binding to plate-bound MSP-1 subunits (ELISA): bind specifically to one subunit
[2]
  binding to MSP-1 subunits and pro-peptide p190 (gel electrophoresis / Western blot): bind to one subunit of MSP-1 and to the MSP-1 pro-peptide (p190), but not to any other subunit

B7: genetically fused VHHkappa-SD36: VHHkappa N-terminally linked to SD36 by (GGGGS)3 linker, SEQ ID NO: 5 (protein)
chain: QVQLVESGGGWVQPGGSLRLSCAASGFTFSDTAMMWVRQAPGKGREWVAAIDTGGGYTYYADSVKGRFTISRDNAKNTLYLQMNSLKPEDTARYYCAKTYSGNYYSNYTVANYGTTGRGTLVTVSSAAAGGGGSGGGGSGGGGSEVQLVESGGGLVQAGGSLKLSCAASGRTYAMGWFRQAPGKEREFVAHINALGTRTYYSDSVKGRFTISRDNAKNTEYLEMNNLKPEDTAVYYCTAQGQWRAAPVAVAAEYEFWGQGTQVTVSSGGLPETGGHHHHHH
[10]
  affinity for influenza A hemagglutinin, in words: low nanomolar

B8: H3: VHH specific for MICA, SEQ ID NO: 24 (protein)
VHH: MAQVQLVETGGGLVQAGGSLRLSCAASGRTFSSYAMGWFRQAPGKEREFVAGISWSGGSTYYGDSVKGRFTISRDNAKNTVYLLMNSLKPEDTAVYYCAADLVRSYGSSWPSLFQFRNPEDVQDGMDYWGKGTLVTVSSGGLPETGGHHHHHH
[3]
  luminescent signal on immunoblots: strong and specific luminescent signal
[4]
  binding to MICA variant (ELISA): observed to bind
[5]
  binding to MICA variant (ELISA): observed to bind
[6]
  binding to MICA variant (ELISA): not observed to bind
[7]
  staining of transfected cells: robust staining
[8]
  staining of transfected cells: neither nanobody clone stained
[9]
  staining of transfected cells: neither nanobody clone stained

Reference: patent publication US20250144228A1, “NANOBODY-DRUG ADDUCTS AND USES THEREOF” (priority 2022, published 2025)
